Assays:
[1] = target: the molecule itself; experiment: cryo-EM structure; single-particle cryo-EM of purified channel in GDN (200 mM NaCl, 40 mM HEPES pH 7.8, 0.005% GDN); without Ca2+ (EGTA) or after a 30 s spike of 1 uM or 5 mM Ca2+; C5 symmetry refinement
[2] = target: the molecule itself; experiment: cryo-EM structure; single-particle cryo-EM of purified truncated channel (residues 1-345) in GDN, in the presence of 5 mM Ca2+; C5 symmetry refinement

Protein | stoichiometry N [1] | binding result [2]
wild-type human bestrophin-1 (natural protein, human bestrophin-1 (hBest1), wild type; also called hBest1; WT hBest1; source: HEK293-F cells, Bacmam system, purified (GDN extraction, Ni-NTA, TEV cleavage, gel filtration)) MTITYTSQVANARLGSFSRLLLCWRGSIYKLLYGEFLIFLLCYYIIRFIYRLALTEEQQLMFEKLTLYCDSYIQLIPISFVLGFYVTLVVTRWWNQYENLPWPDRLMSLVSGFVEGKDEQGRLLRRTLIRYANLGNVLILRSVSTAVYKRFPSAQHLVQAGFMTPAEHKQLEKLSLPHNMFWVPWVWFANLSMKAWLGGRIRDPILLQSLLNEMNTLRTQCGHLYAYDWISIPLVYTQVVTVAVYSFFLTCLVGRQFLNPAKAYPGHELDLVVPVFTFLQFFFYVGWLKVAEQLINPFGEDDDDFETNWIVDRNLQVSLLAVDEMHQDLPRMEPDMYWNKPEPQPPYTAASAQFRRASFMGSTFNISLNKEEMEFQPNQEDEEDAHAGIIGRFLGLQSHDHHPPRANSRTKLLWPKRESLLHEGLPKNHKAAKQNVRGQEDNKAWKLKAVDAFKSAPLYQRPGYYSAPQTPLSPTPMFFPLEPSAPSKLHSVTGIDTKDKSLKTVSSGAKKSFELLSESDGALMEHPEVSQVRRKTVEFNLTDMPEIPENHLKEPLEQSPTNIHTTLKDHMDPYWALENRDEAHS | 5 | 
bBest2_(1–345) (domain or fragment, bovine, UniProt E1BF86 1-345, looked up, PDB 6VX7 is the cited earlier bBest2 structure, another construct; also called bBEST2 345; AS truncated bovine Best2; source: HEK293-F cells, Bacmam system, purified (GDN extraction, Ni-NTA, TEV cleavage, gel filtration)) MTVTYTARVAKARFGGFSKLLLLWRGSIYKLLWRELLCFLGLFMALSAAYRFVLTEEQKRYFEKLVLYCDRYASLIPVSFVLGFYVTLVVHRWWNQYLSMPLTDALMCVVVGTVHGHDERGRLYRRTLMRYAGLSGVLILRSVSTAVFKRFPTIDHVVEAGFMTREERKKFENLNSSYNKYWVPCVWFCNLAAQARREGRIRDNGAFKLLLEELNVFRSKCGMLFHYDWISVPLVYTQVVTIAVYSYFLACLIGRQFLDPAQGYKDHDLDLCVPIFTLLQFFFYAGWLKVAEQLINPFGEDDDDFETNFLIDRCFQVSMLAVDEMYDDLAMLEKDLYWDAAEARA |  | binds
hBest1_(1–345) (domain or fragment, human, UniProt O76090 1-345, looked up, also called hBEST1 345; AS truncated hBest1; source: HEK293-F cells, Bacmam system, purified (GDN extraction, Ni-NTA, TEV cleavage, gel filtration)) MTITYTSQVANARLGSFSRLLLCWRGSIYKLLYGEFLIFLLCYYIIRFIYRLALTEEQQLMFEKLTLYCDSYIQLIPISFVLGFYVTLVVTRWWNQYENLPWPDRLMSLVSGFVEGKDEQGRLLRRTLIRYANLGNVLILRSVSTAVYKRFPSAQHLVQAGFMTPAEHKQLEKLSLPHNMFWVPWVWFANLSMKAWLGGRIRDPILLQSLLNEMNTLRTQCGHLYAYDWISIPLVYTQVVTVAVYSFFLTCLVGRQFLNPAKAYPGHELDLVVPVFTFLQFFFYVGWLKVAEQLINPFGEDDDDFETNWIVDRNLQVSLLAVDEMHQDLPRMEPDMYWNKPEPQP |  | binds
wild-type human bestrophin-2 (natural protein, UniProt Q8NFU1 1-509, looked up, human bestrophin-2 (hBest2), wild type; also called hBest2; WT hBest2; source: HEK293-F cells, Bacmam system, purified (GDN extraction, Ni-NTA, TEV cleavage, gel filtration)) MTVTYTARVANARFGGFSQLLLLWRGSIYKLLWRELLCFLGFYMALSAAYRFVLTEGQKRYFEKLVIYCDQYASLIPVSFVLGFYVTLVVNRWWSQYLCMPLPDALMCVVAGTVHGRDDRGRLYRRTLMRYAGLSAVLILRSVSTAVFKRFPTIDHVVEAGFMTREERKKFENLNSSYNKYWVPCVWFSNLAAQARREGRIRDNSALKLLLEELNVFRGKCGMLFHYDWISVPLVYTQVVTIALYSYFLACLIGRQFLDPAQGYKDHDLDLCVPIFTLLQFFFYAGWLKVAEQLINPFGEDDDDFETNFLIDRNFQVSMLAVDEMYDDLAVLEKDLYWDAAEARAPYTAATVFQLRQPSFQGSTFDITLAKEDMQFQRLDGLDGPMGEAPGDFLQRLLPAGAGMVAGGPLGRRLSFLLRKNSCVSEASTGASCSCAVVPEGAAPECSCGDPLLDPGLPEPEAPPPAGPEPLTLIPGPVEPFSIVTMPGPRGPAPPWLPSPIGEEEENLA | 5 | 

— paper PMC9253114, “Structures and gating mechanisms of human bestrophin anion channels” (Nature Communications, 2022)
